Laboratory results: the nanobody polyreactivity screen of Harvey et al. (2022)

Assay: yeast display, Sf9 membrane polyspecificity reagent, FACS + sequencing; frameworks hold sequencing errors
In short: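 Sorting gates, low and high (top ~1%), were placed on anti-HA fluorescence to track expression and on streptavidin fluorescence to track reagent binding. A clone's polyreactivity label is taken from the gate it came out of. The reagent was 10% biotinylated, detergent-solubilized Sf9 membrane, applied for 1 hour at 4 °C to galactose-induced yeast display cells.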

Q: For “QVQLVESGGGLVQAGGSLRLSCAASGSTFAGYTLGWYRQAPGKERELVAAITSRGGRTYYADSVKGRFTISRDHAKNTVYLQMNSLKPEDTAVYYCAAVSRYYAALMYYWGQGTQVTVSS”, which “polyreactivity (PSR sort gate)” value is on record?
A: high polyreactivity

Q: Which “polyreactivity (PSR sort gate)” value does the source give for “QVQLVESGGGLVQAGGSLRLSCAASGSTFRLYTMGWYRPAPVKERELVAAITSGGSTNYADSVKGRFTISRDNAKNTVYLQMNSLKPEDTSVYYCAIAKRFPSFDYWGQGTQVTVSS” here?
A: low polyreactivity

Q: With “QVQLVESGGGLVQAGGSLRLSCAASGSTFYSYAMGWYRQAPGKERELVAAIDWSGDNTNYADSVKGRFTISRDNAKNTVYLQMNSLKPEDTAVYYCAAVYSYYRLYAYPAYYYWGQGTQVTVSS” as the sequence, how does the “polyreactivity (PSR sort gate)” value read?
A: low polyreactivity

Q: For “QVQLVESGGGLVQAGGSLRLSCAASGFTFKYYAMGWYRQAPGKERELVATITSGGRTNYADSVKGRFTISRDNAKNTVYLQMNSLKPEDTAVYYCATPYSAYWQNERDYWGQGTQVTVSS”, which “polyreactivity (PSR sort gate)” value is on record?
A: high polyreactivity

Q: With “QVQLVESGGGLVQAGGSLRLSCAASGRILWGNVMGWYRKAPGKERELVATITHGGSTNYADSVKGRFTISRDNAKNTVYLQMNSLKPEDTAVYYCARATRIQFYRRPYNYWGQGTQVTVSS” as the sequence, how does the “polyreactivity (PSR sort gate)” value read?
A: high polyreactivity

Q: For “QVQLVESGGGLVQAGGSLRLSCAASGFIFVFYDMGWYRQAPGKERELVAGITRNDGSTYYADSVKGRFKISRDNAKNTVYLQMNSLKPEDTAVYYCAAESAGSYLDYYWAYGYWGQGTQVTVSS”, which “polyreactivity (PSR sort gate)” value is on record?
A: low polyreactivity

Q: Which “polyreactivity (PSR sort gate)” value does the source give for “QVQLVESGGGLVQAGGILRLSCAASGFIFNSYAMGWYRQAPGKERELVAAITKSGGRTYYADSVKGRFTISRDNEKNTVYFQMNSLKPEDTAVYYCAARAYRSSVYRGDYWGQGTQVTVSS” here?
A: high polyreactivity

Q: With “QVHLVESGGGLVQAGGSLRLSCAASGSIFAINAMGWYRQAPGKERELVARISWSGGRTYYADSVKGRFTISRDNAKNTVYLQMNSLKPEDTAVYYCAKRYYKSLNRDEFDSWGQGTQVTVSS” as the sequence, how does the “polyreactivity (PSR sort gate)” value read?
A: high polyreactivity

Q: For “QVQLVESGGCLVQAGGSLRLSCAASGSIFYWYAMGWFRQAPGKARELVAAITWSGVSTYYADSVKGRFTISRDNAKNTVDLQMNSLKREDTAVYYCAALVFGYSVFPYSYWGQGTQVTVSS”, which “polyreactivity (PSR sort gate)” value is on record?
A: high polyreactivity

Q: Which “polyreactivity (PSR sort gate)” value does the source give for “QVQLVESGGGLVQAGGSLRLSCAASGRTFKSYAMGWYRQAPGKERELVATITRDGRTNYADSVKGRFTISRDNAKNTVYLQMNSLKPEDTAVYYCNADSRYRYDYWGLGTQVTVSS” here?
A: low polyreactivity

Q: With “QVQLVESGGGLVQAGGSLSLSCAASGRIFQPYAMGWYRQAPGKERELVARITSGGSTYADSVKGRFTISRDNAKNTVYLQMNSLKPEDTAVYYCAVRFPWYYRGYAYDYWGQGTQVTVSS” as the sequence, how does the “polyreactivity (PSR sort gate)” value read?
A: high polyreactivity

Q: With “QVQVVESGGGLDQAGGSLRLSCAASGRIFFYYGMGWYRQAPGTERELVASISRGGSTTYADSVKGRFTISRDNAMKTVYLQMNSLKPEDSAVYYCARRYTQIYSSNYGYWGQGTEVTVSS” as the sequence, how does the “polyreactivity (PSR sort gate)” value read?
A: high polyreactivity

Q: With “QVQLVESGGGLVQAGGSLRLTCAASGFTFPSYPMVWYRQAPGKERELVAAITRSGVRTYYADSVKGRFTISRDNAKNTVYFQMNSLKPEDTAVYYCAAVYPRQVSQVWRDDFWGQGTQVTVSS” as the sequence, how does the “polyreactivity (PSR sort gate)” value read?
A: high polyreactivity

Q: With “QVQLQESGGGLVQEGGSLRLSCASSGNISPPADMGWYRQAPGKERELVASMGTGGTTNYADSVKGRFTISRDNAKNTVYLQMNSLKPDDTAVYYCAAVRYEYNPYDYWGQGTQVTVSS” as the sequence, how does the “polyreactivity (PSR sort gate)” value read?
A: low polyreactivity

Q: Which “polyreactivity (PSR sort gate)” value does the source give for “QVQLVESGGGLVQAGASLRLSCAASGSTFHSYAMGWYRQAPGKERELVAAISTSGGSTYYADSVKGRFTISRDNAKNTVYLQMNSLKPEDTAVYYCAAYSISSRMNYWGQGTQVTVSS” here?
A: high polyreactivity

Q: Which “polyreactivity (PSR sort gate)” value does the source give for “QVQHVESGGGLVQAGGSLRLSCAASGRTFPPYDMGWYRQAPGKERELVAAITSDGSTSYADSVKGRFTISRDNAKNTVYLQMNSLKPEDTAVYYCAAYRWYSAARMGYWGQGTQVTVSS” here?
A: high polyreactivity

Q: For “QVQLVESGGGLVQAGGSLRLSCAASGSTLKYYAMGWYRQAPGKERELVARITRSSGSTYYADSVKGRFTISRDNAKNTVFLHMNSLKPEDTAVYYCNKVYKSYYCGCYDWGQGTQVTVLS”, which “polyreactivity (PSR sort gate)” value is on record?
A: high polyreactivity

Q: With “QVQLVESAGGLVQAGGSLRLSCAASGSIFNVYDMGWYRQAPGKERELVAAITWSGGRTYYADSVKGRFTISRDNAKNTVYLQMNSLKPEDTAVSSCSARRWWVKSWRRFDYWGQGTQVTVSS” as the sequence, how does the “polyreactivity (PSR sort gate)” value read?
A: high polyreactivity

Q: Which “polyreactivity (PSR sort gate)” value does the source give for “QVQLVESGGGLVQAGGSLRLSCSASGFTSRKNAMGWYRQAPGKERELVAAITQSSGRTYYADSVKGRFTISRDNAKNTVYLQMNSLKPEDTAVYYCAARRGGEDDYWGQGTQVTVSS” here?
A: low polyreactivity

Q: Which “polyreactivity (PSR sort gate)” value does the source give for “QVQLVESGGGLVQAGGSLRLSCAASGFSFSRYAMGWYRQAPGKDRELVATITSGGGGTYYADSVKGRFTISRDNAKNTVYLQKNSLKPEDTAVYYCAKYSPYYRNGLDYWGHGTQVTVSS” here?
A: high polyreactivity

Q: Which “polyreactivity (PSR sort gate)” value does the source give for “QVQLVESGGGLVQAGGSLRLSCAASGFTYFYAMGWYRQAPGKERELVATITINGGRTYYADSVKGRFTISRDNAKNTVYLQMNSLKPEDTAVYYCAAKSWYSYGDWGYYSWGQGTQVTVSS” here?
A: high polyreactivity

Q: With “QVQLVESGGGLVQAGGSLRLSCAASGSSFPENAMGWYRQAPGKERQLVAGISRSDAGTHYADSVKGRFTISRDNAKNTVYVQMNSLKPEDTAVYYFDAGGTDEDRLTSWVGLFPAYYYWGQATQVTVSS” as the sequence, how does the “polyreactivity (PSR sort gate)” value read?
A: low polyreactivity

Q: Which “polyreactivity (PSR sort gate)” value does the source give for “QVQLVESGGGLVQAGGSLRLSCAASGIIFGIYDMGWYRQAPGKESELVAAIRRSGGSTYYADSVKGRFTISRDNAKNTVYLQMNSLKPEDTAVYYCAATRHSRVRGGDYWGQGTQVTVSS” here?
A: low polyreactivity

Q: For “QVQLVESGGGLVQAGGSLRLSCAASGLIFKRYGMGWYRQAPGKERELVAAISRSGGNTYYADSVKGRFTISRDNAKNTVYLQMNSLKPEDTAVYYCAATATYTYSDVDYWGQGTQVTVSS”, which “polyreactivity (PSR sort gate)” value is on record?
A: high polyreactivity

Q: With “QVQLVESGGGLVQAGGSLRLSCAASGITFGEYAMGWYRQAPGKERQLVAAITTSGTSTYYADSVKGRFTISRDNAKNTDYLQMNSLKPEDTAVYYCAAYSRAAAGFYSSRRDYYWGQGTQVSVSS” as the sequence, how does the “polyreactivity (PSR sort gate)” value read?
A: low polyreactivity

Q: With “QVQLVESGGGLVQAGGSLRLSCAASGIIFVQYAMGWYRQAPGKERELVAGITRRGGSTYYADSVKGRFTISRDNAKNTVYLQMNSLKTEDTAVFYCAATRPGDVLYRNEYWGQGTQVTVSS” as the sequence, how does the “polyreactivity (PSR sort gate)” value read?
A: high polyreactivity

Q: Which “polyreactivity (PSR sort gate)” value does the source give for “QVQLVESGGGLVQAGGSLRLSCAASGFTFTDYAKGWYRQAPGKERELVAAITKGGGRTYYADSVKWRFTISRDNAKNSVYLQMNSQKPEDTAVYYCNARYQVPYGYWGQGTQVTVSS” here?
A: low polyreactivity

Q: For “QVQLVESGVGLVQAGGSLRLSCAASGFTFARYAMGRYRQAPGKEREFVAAISLSTTSTYYADSVKGRFTISRDYANNNVFLQMNSLKPEDTAVYYCATDIVGPHFDYWGQGTQVSVSS”, which “polyreactivity (PSR sort gate)” value is on record?
A: low polyreactivity

Q: Which “polyreactivity (PSR sort gate)” value does the source give for “QVQHVESGGGLVQAGGSLRLSCAASGITFNEYAMGWYRQAPGKEREFVAAISSSGARTYYADSVKGRFTISRDNAKNTVYLQMNSLKPEDTAVYYCAAVYRSWTSYNGRNYWGQGTQVTVSS” here?
A: high polyreactivity

Q: For “QVQLVESGGGLVQAGGSLRLSCAASGRIFYPYAMGWYRQAPGKERELVAAINWSGDRTYYADSVKGRFTISRDNAKNTVYLQMNSLKPEDTAVYYCAAVYFTRSSGRRYDYWGQGTQVTVSS”, which “polyreactivity (PSR sort gate)” value is on record?
A: high polyreactivity

Q: For “QVQLVESGGGLVQAGGSLRLSCAASGGTFYGYAMGWYRQAPGKERELVAAINYRGGRTYYADSVKGRFTISRDNAKNTVYLQMNSLKPEDTAVYYCAATSYRLDGYDYWGQGTQVTVSS”, which “polyreactivity (PSR sort gate)” value is on record?
A: high polyreactivity

Q: With “QVQLVESGGGLLQAGGSLRLSCAASGFTVYRYAMGWYRPEPGKERELGAAITWSGGSTYYADSVKGRFTISRDNAKKSVYFQMNSLKPEDTAVYYCAKETAPSRLPYGYWGQGTQVNVSS” as the sequence, how does the “polyreactivity (PSR sort gate)” value read?
A: low polyreactivity

Q: Which “polyreactivity (PSR sort gate)” value does the source give for “QVQLEESGGCLVQAGGSLRLSCAASGITFYGNVMGWYRQAPGKERELVAAISWSGGRTYYADSVKGRFTISRDNAKNTVSVQMNSLKPEDTAVDFCAAEGTTNRGVYASYDYWGQGTQVTVSS” here?
A: low polyreactivity

Q: With “QVQLVESGGGLVQAGGSLRLSCAASGFTFNYYAMGGYRPAPGKERELVAAISTGGSTYYADSVKGRFTFSRDNAKNTVYLQMISLKPEDTAVYYCNAKPRYRKADRLDYWGQGTQVTVSS” as the sequence, how does the “polyreactivity (PSR sort gate)” value read?
A: high polyreactivity

Q: For “QVQLVESGGGLVQAGGSLRLSCAASGSTFVRYVMGWYRQAPGKERELVAAISRRGGSTYYADSVKGRFTIARDNAKNTVYLQMNSLKPDDTAVYYCAAVYRLRGAFSRGYWGQGTQVTVSS”, which “polyreactivity (PSR sort gate)” value is on record?
A: high polyreactivity

Q: With “QVQLVESGGGLVQAGGSLRLSCAASGLTFFRNAMGWYRQAPGKEREFVAGITSTDGSTYYADSVKGRFTISRDNAKNTVYLQMNSLKPEDTAVYYCAAAYRVRGRTYDSWGQGTQVTVSS” as the sequence, how does the “polyreactivity (PSR sort gate)” value read?
A: high polyreactivity

Q: Which “polyreactivity (PSR sort gate)” value does the source give for “QVQLVESGGGLVQAGGSLRLSCAASGGIFSVYAMGWYRQAPGKEREFVAAISKSGGRTYYADSVKGRFTISRDNAKNTVYLQMNSLKPEDTAVYYWNVVRRSPGDYSYYYWGQGTQVTVSS” here?
A: low polyreactivity

Q: For “QVQLVESGGGLVQAGGSLRLSCAASGYTLGDYAMGWYRQAPGKERELVAAISSGGITSYADSVKGRFTISRDNAKNTVYLQMNSLKPEDTAVYYCNAAIVGFTRAYQYDYWGQGTQVTVSS”, which “polyreactivity (PSR sort gate)” value is on record?
A: high polyreactivity

Q: With “QVQLVESGVGLVQAGGSLRLSCAASGRTFSYYAMGWSRQAPGKERELVAAITSSGGSTYYADSVKGRFTISRDNAKNTVYLQMNSLKPEDTAVYYCAAEIWYYLWTTFERKYDYWGQGTQVTVSS” as the sequence, how does the “polyreactivity (PSR sort gate)” value read?
A: low polyreactivity

Q: Which “polyreactivity (PSR sort gate)” value does the source give for “QVQLVESGGGLVQAGGSLRLSCAASGRIFFLYAMGWSRQAPGKERELVAAITKSGGSTYADSVKGRYTISRDNAKNPVYLQMNSLKPEDTAVYYCATENTDSRDSGYIVKYGSDYWGQRTQVTVSS” here?
A: low polyreactivity

Q: Which “polyreactivity (PSR sort gate)” value does the source give for “QVQLVESGGGLVQAVGSLRLSCAASGRTSPRNAMGWYRQAPGKERELVAAINRTGGTTYYSDSVKGRFTISRDNAKNTVYLQMNSLIPEDTAVYYCAADVWVSTSGDWFRYDYWGQGTQVTVSS” here?
A: high polyreactivity

Q: Which “polyreactivity (PSR sort gate)” value does the source give for “QVQLVESGGGLVQAGGSLRLSCAASGFIFAQNAMGWYRQAPGKERELVAAISGSGGRTYYADSVKGRFTISRDNAKNTVYLQMNSLKPEDTAVYYCAAQSFSGYWGQGTQVTVSS” here?
A: high polyreactivity

Q: For “QVQLVESGGGLVQAGGSLRLSCAASGSIFVSYTMGWYRQAPGKERELVAAITRSGGSTYYADSVKGRFTISRDNAKNTVYLQMNSLKPEDTAVYYCAAGTVDYRGYFEMYFWGQGTQVTVSS”, which “polyreactivity (PSR sort gate)” value is on record?
A: low polyreactivity
